Assay results as given in PMC5327651 (Virology, 2016).

Legend:
cross-linking = target: the molecule itself; assay: cross-linking
FRET or BRET = target: the molecule itself; assay: FRET or BRET

| Protein | stoichiometry N (cross-linking) | binding result (FRET or BRET) |
| --- | --- | --- |
| WT rhTRIM5α CC-L2 peptide (residues 132-296) with an added C-terminal cysteine, fluorescently labelled (domain or fragment, rhesus macaque, Alexa Fluor 488 C5-maleimide or Alexa Fluor 594 C5-maleimide on the added C-terminal cysteine) LMEEVAQEYHVKLQTALEMLRQKQQEAEKLEADIREEKASWKIQIDYDKTNVSADFEQLREILDWEESNELQNLEKEEEDILKSLTKSETEMVQQTQYMRELISELEHRLQGSMMDLLQGVDGIIKRIENMTLKKPKTFHKNQRRVFRAPDLKGMLDMFRELTDAC | 2 | – |
| HKN271-273AAA rhTRIM5α CC-L2 peptide (residues 132-296) with an added C-terminal cysteine, fluorescently labelled (domain or fragment, rhesus macaque, Alexa Fluor 488 C5-maleimide or Alexa Fluor 594 C5-maleimide on the added C-terminal cysteine) LMEEVAQEYHVKLQTALEMLRQKQQEAEKLEADIREEKASWKIQIDYDKTNVSADFEQLREILDWEESNELQNLEKEEEDILKSLTKSETEMVQQTQYMRELISELEHRLQGSMMDLLQGVDGIIKRIENMTLKKPKTFAAAQRRVFRAPDLKGMLDMFRELTDAC | – | binds |
| RRV275-277AAA rhTRIM5α CC-L2 peptide (residues 132-296) with an added C-terminal cysteine, fluorescently labelled (domain or fragment, rhesus macaque, Alexa Fluor 488 C5-maleimide or Alexa Fluor 594 C5-maleimide on the added C-terminal cysteine) LMEEVAQEYHVKLQTALEMLRQKQQEAEKLEADIREEKASWKIQIDYDKTNVSADFEQLREILDWEESNELQNLEKEEEDILKSLTKSETEMVQQTQYMRELISELEHRLQGSMMDLLQGVDGIIKRIENMTLKKPKTFHKNQAAAFRAPDLKGMLDMFRELTDAC | – | binds |
